Results taken from patent US20260217863.

Columns and labels:
[1] = biological target: T1, Fv-2, expressed soluble Fv antibody of clone 23 (His-tag-TdTomato-VH)
T1 chain: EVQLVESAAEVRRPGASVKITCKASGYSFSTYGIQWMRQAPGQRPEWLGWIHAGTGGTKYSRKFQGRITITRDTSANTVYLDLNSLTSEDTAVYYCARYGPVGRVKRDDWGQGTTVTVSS

[2] = biological target: Fv-3, expressed soluble Fv antibody of clone 39 (His-tag-TdTomato-VH)
[3] = biological target: T2, Fv-1, expressed soluble Fv antibody of clone 5 (His-tag-TdTomato-VH)
T2 chain: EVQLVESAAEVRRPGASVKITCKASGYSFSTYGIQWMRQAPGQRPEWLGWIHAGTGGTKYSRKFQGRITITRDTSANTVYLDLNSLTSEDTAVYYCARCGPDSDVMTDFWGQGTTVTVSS

B1: Ribonuclease A (Type II-A) from bovine pancreas (protein)
chain: KETAAAKFERQHMDSSTSAASSSNYCNQMMKSRNLTKDRCKPVNTFVHESLADVQAVCSQKNVACKNGQTNCYQSYSTMSITDCRETGSSKYPNCAYKTTQANKHIIVACEGNPYVPVHFDASV
cleavage of HeLa total RNA by RNase A (0.7 µg/ml), agarose gel, Fv antibody at 10 µM [1]: it was observed that the cleavage reaction of RNase A was completely inhibited
stated: RNase A removed from the solution by Fv-2-beads (RNA cleavage read on an agarose gel) [1]: After Fv-Bead treatment: all four lanes (+ to ++++, + : 250 ng Fv-2-bead, RNase A 10 ng) keep both RNA bands (in the dashed box at about 1000-1500 bp and near 600 bp) like lane 0, marked 'RNA cleavage inhibition'. Before treatment (no bead) the four RNase A lanes have no band in the box.
cleavage of HeLa total RNA by RNase A (0.7 µg/ml), agarose gel, Fv antibody at 10 µM [2]: it was observed that the cleavage reaction of RNase A was completely inhibited
cleavage of HeLa total RNA by RNase A (0.7 µg/ml), agarose gel, Fv antibody at 10 µM [3]: it was observed that the cleavage reaction of RNase A was completely inhibited
stated: RNase A removed from the solution by Fv-1-beads (RNA cleavage read on an agarose gel) [3]: After Fv-Bead treatment: all four lanes (+ to ++++, + : 250 ng Fv-1-bead, RNase A 10 ng) keep faint RNA in the dashed box at about 1000-1500 bp like lane 0, marked 'RNA cleavage inhibition'. Before treatment (no bead) the four RNase A lanes show only a smear near 250 bp.
